According to patent publication US20110207628A1 (UNIVERSITY OF MIAMI, published 2011):

T1: tubby-N (N-terminus of mouse tubby, 1M-242P), GST-free (mouse, UniProt P50586 1-242)
T1 construct: range 1-242; Expressed as GST-tubby-N in E. coli BL21(DE3), GST removed by 3C protease cleavage; also called GST-free tubby-N
T1 sequence (looked up): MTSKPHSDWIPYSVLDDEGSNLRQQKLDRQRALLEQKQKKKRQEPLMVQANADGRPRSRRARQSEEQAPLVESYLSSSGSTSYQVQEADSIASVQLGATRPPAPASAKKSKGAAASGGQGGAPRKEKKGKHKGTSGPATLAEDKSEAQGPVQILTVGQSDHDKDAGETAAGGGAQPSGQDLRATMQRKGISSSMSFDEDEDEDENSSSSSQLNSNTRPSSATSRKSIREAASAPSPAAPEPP

T2: FLAG-tubby-F (full-length mouse tubby with N-terminal FLAG tag) (mouse, UniProt P50586 1-505)
T2 construct: mature; also called FLAG-tagged tubby; tubby-vesicles
T2 sequence: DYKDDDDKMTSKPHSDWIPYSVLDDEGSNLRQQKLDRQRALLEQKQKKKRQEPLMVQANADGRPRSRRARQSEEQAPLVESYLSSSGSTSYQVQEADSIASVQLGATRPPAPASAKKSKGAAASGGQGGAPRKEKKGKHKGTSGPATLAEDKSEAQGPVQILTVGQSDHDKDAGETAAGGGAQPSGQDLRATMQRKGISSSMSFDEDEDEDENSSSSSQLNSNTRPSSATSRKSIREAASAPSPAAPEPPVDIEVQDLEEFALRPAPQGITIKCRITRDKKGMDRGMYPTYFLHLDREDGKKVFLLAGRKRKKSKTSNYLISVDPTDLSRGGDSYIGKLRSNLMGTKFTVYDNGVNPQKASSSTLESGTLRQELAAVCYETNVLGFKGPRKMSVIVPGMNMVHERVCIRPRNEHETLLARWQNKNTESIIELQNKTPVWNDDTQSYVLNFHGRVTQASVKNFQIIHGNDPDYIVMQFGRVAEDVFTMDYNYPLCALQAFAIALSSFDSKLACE

T3: FLAG-tagged Tulp2 (full-length mouse Tulp2 with N-terminal FLAG tag) (mouse, UniProt P46686 1-562)
T3 construct: mature; Expressed from pcDNA3 in Neuro-2a cells; used as cell lysate or on membrane vesicles
T3 sequence: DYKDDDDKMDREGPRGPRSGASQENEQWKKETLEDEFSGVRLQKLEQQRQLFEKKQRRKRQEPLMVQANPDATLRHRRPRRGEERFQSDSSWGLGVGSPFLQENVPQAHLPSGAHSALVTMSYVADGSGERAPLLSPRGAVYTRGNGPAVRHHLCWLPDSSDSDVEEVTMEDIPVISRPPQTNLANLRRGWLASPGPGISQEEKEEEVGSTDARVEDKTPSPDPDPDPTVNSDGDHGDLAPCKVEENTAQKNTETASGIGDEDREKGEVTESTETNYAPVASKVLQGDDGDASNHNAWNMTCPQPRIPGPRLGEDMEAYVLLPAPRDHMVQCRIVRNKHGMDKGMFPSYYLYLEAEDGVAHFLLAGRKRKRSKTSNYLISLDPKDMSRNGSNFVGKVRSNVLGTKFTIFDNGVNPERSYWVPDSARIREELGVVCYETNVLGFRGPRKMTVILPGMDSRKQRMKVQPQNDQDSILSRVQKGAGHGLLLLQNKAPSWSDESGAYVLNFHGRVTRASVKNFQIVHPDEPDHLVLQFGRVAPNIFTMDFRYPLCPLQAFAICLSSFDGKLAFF


What was measured:
[1] = target: T4, Axl-Fc (Axl extracellular domain fused to human IgG1 Fc fragment) (human); assay: clonal phage on immobilized Axl-Fc, plaque assay
T4 construct: extracellular domain; Bought (R&D Systems)
T4 sequence (P30530 whole entry, the tested form may be a part): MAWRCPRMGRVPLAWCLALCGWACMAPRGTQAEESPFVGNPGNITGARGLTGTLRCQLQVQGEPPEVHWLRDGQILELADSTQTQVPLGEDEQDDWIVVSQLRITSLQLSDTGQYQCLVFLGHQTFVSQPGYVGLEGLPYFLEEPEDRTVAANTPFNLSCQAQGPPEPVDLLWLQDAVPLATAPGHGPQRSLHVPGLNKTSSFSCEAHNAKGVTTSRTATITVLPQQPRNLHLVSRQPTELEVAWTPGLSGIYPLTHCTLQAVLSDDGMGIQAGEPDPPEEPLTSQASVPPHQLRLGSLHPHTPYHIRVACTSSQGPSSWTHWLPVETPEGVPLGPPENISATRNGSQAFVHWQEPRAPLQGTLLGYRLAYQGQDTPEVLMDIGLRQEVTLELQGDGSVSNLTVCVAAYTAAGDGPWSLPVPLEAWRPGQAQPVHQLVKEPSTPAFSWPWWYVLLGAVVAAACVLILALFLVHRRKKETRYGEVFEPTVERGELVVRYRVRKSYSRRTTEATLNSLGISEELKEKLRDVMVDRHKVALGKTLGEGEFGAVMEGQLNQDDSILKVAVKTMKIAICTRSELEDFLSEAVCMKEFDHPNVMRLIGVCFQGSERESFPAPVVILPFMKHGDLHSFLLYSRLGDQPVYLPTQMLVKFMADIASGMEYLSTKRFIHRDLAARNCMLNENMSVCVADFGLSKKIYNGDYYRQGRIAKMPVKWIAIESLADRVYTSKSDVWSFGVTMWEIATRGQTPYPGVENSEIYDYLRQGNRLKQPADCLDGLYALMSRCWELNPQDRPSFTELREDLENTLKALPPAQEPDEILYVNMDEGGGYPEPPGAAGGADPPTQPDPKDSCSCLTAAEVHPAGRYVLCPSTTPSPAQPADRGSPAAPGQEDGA

[2] = target: T1, tubby-N (N-terminus of mouse tubby, …); assay: clonal phage on immobilized tubby-N, plaque assay
[3] = target: T2, FLAG-tubby-F (full-length mouse tubby …); assay: clonal phage on immobilized FLAG-tubby-F, plaque assay
[4] = target: T3, FLAG-tagged Tulp2 (full-length mouse …); assay: GST pull-down: GST-tubby with lysate of cells expressing the FLAG-tagged protein, glutathione resin, Western blot with anti-FLAG mAb
[5] = target: T2, FLAG-tubby-F (full-length mouse tubby …); assay: as above

Binder	Binding activity (pfu ratio of clonal phage binding to immobilized Axl-Fc versus blank) [1]	Binding to tubby-N (binding specificity of clonal phage vs. control phage) [2]	Binding to tubby-F (binding specificity to FLAG-tubby-F vs. to GFP-FLAG) [3]	binding result [4]	binding result [5]
PH194: Growth arrest specific 6 (Gas6) 43Q-148R, phage clone (ligand, mouse, UniProt Q61592 43-148, looked up, range 43-148) QRRAYQVFEEAKQGHLERECVEEVCSKEEAREVFENDPETEYFYPRYQECMRKYGRPEEKNPDFAKCVQNLPDQCTPNPCDKKGTHICQDLMGNFFCVCTDGWGGR	~40 X (fold)	–	–	–	–
Structure specific recognition protein 1 (Ssrp1) 486E-619G, phage clone (other, mouse, UniProt Q08943 486-619, looked up, range 486-619; Minimal overlap of 2 independent clones; For Y2H recloned into pGAD424) EEEEDVAEEFDSNASASSSSNEGDSDREEKKREQLKRAKMAKDRKSRRKSSEAKKGKDPNAPKRPMSAYMLWLNASREKIKSDHPGISITDLSKKAGEIWKGMSKEKKEEWDRKAEDARREYEKAMKEYEGGRG	–	~157 X (fold)	~4.5 X (fold)	–	–
High mobility group box 2 (Hmgb2) 89K-188E, phage clone (other, mouse, UniProt P30681 89-188, looked up, range 89-188; Minimal overlap of 5 independent clones; For Y2H recloned into pGAD424) KKDPNAPKRPPSAFFLFCSENRPKIKIEHPGLSIGDTAKKLGEMWSEQSAKDKQPYEQKAAKLKEKYEKDIAAYRAKGKSEAGKKGPGRPTGSKKKNEPE	–	~312 X (fold)	~21.7 X (fold)	–	–
PC4 and SFRS1 interacting protein 1 (Psip1) 152K-219K, phage clone (other, mouse, UniProt Q99JF8 152-219, looked up, range 152-219; Minimal overlap of 4 independent clones; For Y2H recloned into pGAD424) KAEKQVDTEEAGMVTAATASNVKASPKRGRPAATEVKIPKPRGRPKVVKQPCPSDGDMVIDEDKSKKK	–	~196 X (fold)	~24 X (fold)	–	–
PH207: Microfibrillar-associated protein IA or IB (Mfap1) 160K-290E, phage clone (other, Frequency 4; not shown: T7 capsid 10B fusion partner, linker/3C cleavage site and C-terminal biotinylation tag of the phage display construct) KNEEMEVMEVEDEGRSGEESESESEYEEYTDSEDEMEPRLKPVFIRKKDRVTVQEREAEALKQKELEQEAKRMAEERRKYTLKIVEEETKKELEENKRSLAALDALNTDDENDEEEYEAWKVRELKRIKRE	~36700 X (fold)	–	–	–	–
Zinc finger E-box binding homeobox 1 (Zeb1) 903E-1021E, phage clone (other, mouse, UniProt Q64318 903-1021, looked up, range 903-1021; Residues are the minimal overlap of 2 independent clones; For Y2H the insert was recloned into pGAD424) EHTGKRPHECGICRKAFKHKHHLIEHMRLHSGEKPYQCDKCGKRFSHSGSYSQHMNHRYSYCKRGAEDRDAMEQEDAGPEVLPEVLATEHVGARASPSQADSDERESLTREEDEDSEKE	–	~284 X (fold)	~28.7 X (fold)	–	–
Tubby like protein 1 (Tulp1) 125D-243E, phage clone (other, mouse, UniProt Q9Z273 125-243, looked up, range 125-243; For Y2H recloned into pGAD424) DDDEEEEEKKEGKKEKSSLPPKKAPKEREKKAKALGPRGDVGSPDAPRKPLRTKKKEVGEGTKLRKAKKKGPGETDKDPAGSPAALRKEFPAAMFLVGEGGAAEKGVKKKGPPKGSEEE	–	~49 X (fold)	~29.1 X (fold)	–	–
IQ motif containing GTPase activating protein 2 (Iqgap2) 1232E-1368E, phage clone (other, mouse, UniProt Q3UQ44 1232-1368, looked up, range 1232-1368) EKSDLLNELLESLGEVPTVESFLGEGAVDPNDPNKENTLNQLSKTEISLSLTSKYDVKDGEAVDGRSLMIKTKKLIIDVTRNQPGSTLTEILETPATGQQELEHAKDMESRAVVDSRTPEEGKQSQAVIEDARLPLE	–	~53.2 X (fold)	~1.8 X (fold)	–	–
GST-tubby-F (GST fused to full-length mouse tubby) (other, UniProt P50586 1-505, looked up, mature; Expressed in E. coli BL21(DE3) from pGEX-2T; not shown: glutathione S-transferase of pGEX-2T (Schistosoma japonicum)) MTSKPHSDWIPYSVLDDEGSNLRQQKLDRQRALLEQKQKKKRQEPLMVQANADGRPRSRRARQSEEQAPLVESYLSSSGSTSYQVQEADSIASVQLGATRPPAPASAKKSKGAAASGGQGGAPRKEKKGKHKGTSGPATLAEDKSEAQGPVQILTVGQSDHDKDAGETAAGGGAQPSGQDLRATMQRKGISSSMSFDEDEDEDENSSSSSQLNSNTRPSSATSRKSIREAASAPSPAAPEPPVDIEVQDLEEFALRPAPQGITIKCRITRDKKGMDRGMYPTYFLHLDREDGKKVFLLAGRKRKKSKTSNYLISVDPTDLSRGGDSYIGKLRSNLMGTKFTVYDNGVNPQKASSSTLESGTLRQELAAVCYETNVLGFKGPRKMSVIVPGMNMVHERVCIRPRNEHETLLARWQNKNTESIIELQNKTPVWNDDTQSYVLNFHGRVTQASVKNFQIIHGNDPDYIVMQFGRVAEDVFTMDYNYPLCALQAFAIALSSFDSKLACE	–	–	–	no binding	no binding
CCCTC-binding factor (Ctcf) 136G-400T, phage clone (other, mouse, UniProt Q61164 136-400, looked up, range 136-400; For Y2H recloned into pGAD424) GAYENEVSKEGLAESEPMICHTLPLPEGFQVVKVGANGEVETLEQGELPPQEDSSWQKDPDYQPPAKKTKKTKKSKLRYTEEGKDVDVSVYDFEEEQQEGLLSEVNAEKVVGNMKPPKPTKIKKKGVKKTFQCELCSYTCPRRSNLDRHMKSHTDERPHKCHLCGRAFRTVTLLRNHLNTHTGTRPHKCPDCDMAFVTSGELVRHRRYKHTHEKPFKCSMCDYASVEVSKLKRHIRSHTGERPFQCSLCSYASRDTYKLKRHMRT	–	~117 X (fold)	~44.9 X (fold)	–	–
Microtubule-associated protein 7 (Mtap7) 23A-114R, phage clone (other, mouse, UniProt O88735 23-114, looked up, range 23-114; For Y2H recloned into pGAD424) ASDGYKVQEKRTAPSRPTSTVSGQTSNHSGNKPDPPPVLRVDDRQRLARERREEREKQLAARETVWLEREERARQHYERHLEARKKKLEDQR	–	~3.5 X (fold)	~3.8 X (fold)	–	–
ATP-binding cassette F1 (Abcf1) 57K-196G, phage clone (other, mouse, UniProt Q6P542 57-196, looked up, Minimal overlap of 2 independent clones; For Y2H recloned into pGAD424) KLQKEKEQQQQQQQQKKKRDTRKGRRKKDVDDDSDERVLMERLKQLSVPASDEEDEVPAPIPRGRKKAKGGNVFEALIQDDSEEEEEEEENRVLKPAKPEKNRINKAVAEEPPGLRSKKGKEEKSKGKAKSKPAAADSEG	–	~68.2 X (fold)	~27.2 X (fold)	–	–
Zinc finger protein 609 (Zfp609) 1M-183E, phage clone (other, mouse, UniProt Q8BZ47 1-183, looked up, range 1-183; Minimal overlap of 2 independent clones; For Y2H recloned into pGAD424) MSLSSGACGGKGVDANPVETYDSGDEWDIGVGNLIIDLDADLEKDQQKLEMSGSKEVGIPAPNAVATLPDNIKFVTPVPGPQGKEGKSKSKRSKSGKDASKPTPGTSLFSPSEGAASKKEVQGRAGDGASAGGLVAAVAPKGSEKAAKASRSVAGSKKEKENSSSKGKKERSEGVGTCSEKDP	–	~53.2 X (fold)	~2.3 X (fold)	–	–
PH181: SPRY domain containing 3 (Spryd3) 31I-215S, phage clone (other, mouse, range 31-215; Frequency 8) IREIREVRAFRYQERFKHILVDGDTLSYHGNSGEVGCYVASRPLTKDSNYFEVSIVDSGVRGTIAVGLVPQYYSLDHQPGWLPDSVAYHADDGKLYNGRAKGRQFGSKCNSGDRIGCGIEPVSFDVQTAQIFFTKNGKRVGSTIMPMSPDGLFPAVGMHSLGEEVRLHLNAELGREDDSVMMVDS	~1e+06 X (fold)	–	–	–	–
